Source: US20260125455A1

Legend:
[1] = target: C6Δ634: 1-634_10xHis (human); assay: ELISA, wells coated with the C6 construct, control mouse IgG; replicate 2
C6: 1-934_10xHis (human) [2] = assay: as above
[3] = target: C6Δ1-79: SP_79-934_10xHis (human); assay: as above
[4] = target: C6Δ762: 1-762_10xHis (human); assay: as above
[5] = target: purified FIM1-2 domains of C6 (human) (UniProt P13671); assay: ELISA, wells coated with FIM1-2_His, control mouse IgG; replicate 1
C6 no His (human) [6] = target: C6 no His (human) (UniProt P13671); assay: ELISA, wells coated with 'C6 no His', control mouse IgG; replicate 2
Chain of C6 no His (human) (P13671 22-934 limits assumed): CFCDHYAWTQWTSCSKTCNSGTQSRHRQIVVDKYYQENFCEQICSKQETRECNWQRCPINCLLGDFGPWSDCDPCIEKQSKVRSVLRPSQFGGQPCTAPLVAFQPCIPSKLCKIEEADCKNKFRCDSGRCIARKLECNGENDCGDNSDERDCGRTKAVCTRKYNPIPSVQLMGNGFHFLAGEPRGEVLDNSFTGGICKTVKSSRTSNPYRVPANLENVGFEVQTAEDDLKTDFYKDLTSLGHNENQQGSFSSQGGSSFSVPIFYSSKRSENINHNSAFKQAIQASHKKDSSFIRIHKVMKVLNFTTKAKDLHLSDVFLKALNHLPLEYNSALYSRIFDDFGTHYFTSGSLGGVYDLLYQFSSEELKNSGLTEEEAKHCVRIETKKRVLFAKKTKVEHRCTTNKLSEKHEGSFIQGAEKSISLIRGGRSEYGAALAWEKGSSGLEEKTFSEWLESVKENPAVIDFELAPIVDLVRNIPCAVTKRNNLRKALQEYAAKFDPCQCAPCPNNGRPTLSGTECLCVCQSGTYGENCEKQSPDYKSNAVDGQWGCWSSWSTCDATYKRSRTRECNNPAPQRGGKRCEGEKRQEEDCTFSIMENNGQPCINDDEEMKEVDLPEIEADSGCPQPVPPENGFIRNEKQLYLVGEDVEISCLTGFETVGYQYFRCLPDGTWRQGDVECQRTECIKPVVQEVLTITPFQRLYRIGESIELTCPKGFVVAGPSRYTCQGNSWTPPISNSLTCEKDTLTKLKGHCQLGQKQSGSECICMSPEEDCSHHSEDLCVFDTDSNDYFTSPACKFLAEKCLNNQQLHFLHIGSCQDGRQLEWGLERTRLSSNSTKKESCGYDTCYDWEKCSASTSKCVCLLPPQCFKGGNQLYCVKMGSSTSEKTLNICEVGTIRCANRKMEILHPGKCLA

C6 no His (human) [7] = target: C6 no His (human) (UniProt P13671); assay: ELISA, wells coated with 'C6 no His', control mouse IgG; replicate 1
[8] = target: purified FIM1-2 domains of C6 (human) (UniProt P13671); assay: ELISA, wells coated with FIM1-2_His, control mouse IgG; replicate 2
[9] = target: human complement protein C6 (human) (UniProt P13671); assay: ELISA, wells coated with 'C6 from Comptech', control mouse IgG; replicate 1
Chain of human complement protein C6 (human) (P13671 22-934 limits assumed): as above

[10] = target: C6Δ634: 1-634_10xHis (human); assay: ELISA, wells coated with the C6 construct, control mouse IgG; replicate 1
C6: 1-934_10xHis (human) [11] = assay: as above
[12] = target: C6Δ1-79: SP_79-934_10xHis (human); assay: as above
[13] = target: C6Δ762: 1-762_10xHis (human); assay: as above
[14] = target: human complement protein C6 (human) (UniProt P13671); assay: ELISA, wells coated with 'C6 from Comptech', control mouse IgG; replicate 2

Chain of C6Δ634: 1-634_10xHis (human) (P13671 22-634, stated change not applied): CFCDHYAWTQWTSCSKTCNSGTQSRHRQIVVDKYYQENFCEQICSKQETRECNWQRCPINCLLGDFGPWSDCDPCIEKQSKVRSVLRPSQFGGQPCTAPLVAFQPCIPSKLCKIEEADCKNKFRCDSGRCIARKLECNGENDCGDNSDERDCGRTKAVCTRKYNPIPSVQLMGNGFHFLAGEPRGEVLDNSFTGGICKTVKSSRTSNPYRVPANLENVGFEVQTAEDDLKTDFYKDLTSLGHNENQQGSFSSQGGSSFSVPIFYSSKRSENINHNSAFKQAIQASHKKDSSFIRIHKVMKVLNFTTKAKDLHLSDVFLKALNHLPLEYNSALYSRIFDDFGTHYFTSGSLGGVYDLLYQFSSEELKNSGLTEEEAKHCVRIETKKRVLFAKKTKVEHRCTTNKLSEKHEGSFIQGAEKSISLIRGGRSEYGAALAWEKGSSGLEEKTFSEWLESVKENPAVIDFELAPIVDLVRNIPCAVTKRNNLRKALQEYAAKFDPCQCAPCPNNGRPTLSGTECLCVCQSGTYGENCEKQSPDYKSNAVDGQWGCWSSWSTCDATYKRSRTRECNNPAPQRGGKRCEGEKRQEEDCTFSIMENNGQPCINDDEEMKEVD
Chain of C6Δ1-79: SP_79-934_10xHis (human) (P13671 79-934, stated change not applied): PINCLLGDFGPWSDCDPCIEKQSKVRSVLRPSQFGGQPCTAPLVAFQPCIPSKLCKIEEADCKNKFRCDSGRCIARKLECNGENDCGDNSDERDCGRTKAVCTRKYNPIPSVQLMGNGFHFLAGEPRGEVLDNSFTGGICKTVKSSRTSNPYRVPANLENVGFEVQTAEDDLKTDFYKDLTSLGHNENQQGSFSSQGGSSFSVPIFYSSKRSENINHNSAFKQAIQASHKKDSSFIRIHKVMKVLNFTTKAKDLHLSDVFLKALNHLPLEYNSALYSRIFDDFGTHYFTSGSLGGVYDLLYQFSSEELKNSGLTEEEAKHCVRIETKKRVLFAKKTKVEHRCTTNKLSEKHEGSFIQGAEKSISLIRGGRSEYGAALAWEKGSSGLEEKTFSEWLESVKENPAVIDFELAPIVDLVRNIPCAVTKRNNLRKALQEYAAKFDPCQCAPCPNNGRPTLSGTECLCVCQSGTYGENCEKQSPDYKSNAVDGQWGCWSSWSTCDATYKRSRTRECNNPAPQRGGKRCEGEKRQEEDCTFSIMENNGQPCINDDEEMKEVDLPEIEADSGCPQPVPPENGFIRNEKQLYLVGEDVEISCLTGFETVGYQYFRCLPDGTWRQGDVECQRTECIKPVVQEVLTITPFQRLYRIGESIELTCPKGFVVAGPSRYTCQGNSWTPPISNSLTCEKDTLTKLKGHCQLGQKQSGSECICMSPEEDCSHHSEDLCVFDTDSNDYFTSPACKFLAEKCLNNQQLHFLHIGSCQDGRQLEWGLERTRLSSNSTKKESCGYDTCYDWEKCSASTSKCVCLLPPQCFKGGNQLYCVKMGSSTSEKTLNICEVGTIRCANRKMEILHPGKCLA
Chain of C6: 1-934_10xHis (human) (P13671 22-934): as the sequence (P13671 22-934 limits assumed) above
Chain of purified FIM1-2 domains of C6 (human) (P13671 766-934 limits assumed): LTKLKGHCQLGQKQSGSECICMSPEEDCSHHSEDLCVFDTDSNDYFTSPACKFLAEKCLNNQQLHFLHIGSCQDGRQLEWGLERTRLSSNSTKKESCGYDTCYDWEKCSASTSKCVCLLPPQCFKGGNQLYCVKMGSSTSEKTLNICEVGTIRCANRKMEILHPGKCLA
Chain of C6Δ762: 1-762_10xHis (human) (P13671 22-762, stated change not applied): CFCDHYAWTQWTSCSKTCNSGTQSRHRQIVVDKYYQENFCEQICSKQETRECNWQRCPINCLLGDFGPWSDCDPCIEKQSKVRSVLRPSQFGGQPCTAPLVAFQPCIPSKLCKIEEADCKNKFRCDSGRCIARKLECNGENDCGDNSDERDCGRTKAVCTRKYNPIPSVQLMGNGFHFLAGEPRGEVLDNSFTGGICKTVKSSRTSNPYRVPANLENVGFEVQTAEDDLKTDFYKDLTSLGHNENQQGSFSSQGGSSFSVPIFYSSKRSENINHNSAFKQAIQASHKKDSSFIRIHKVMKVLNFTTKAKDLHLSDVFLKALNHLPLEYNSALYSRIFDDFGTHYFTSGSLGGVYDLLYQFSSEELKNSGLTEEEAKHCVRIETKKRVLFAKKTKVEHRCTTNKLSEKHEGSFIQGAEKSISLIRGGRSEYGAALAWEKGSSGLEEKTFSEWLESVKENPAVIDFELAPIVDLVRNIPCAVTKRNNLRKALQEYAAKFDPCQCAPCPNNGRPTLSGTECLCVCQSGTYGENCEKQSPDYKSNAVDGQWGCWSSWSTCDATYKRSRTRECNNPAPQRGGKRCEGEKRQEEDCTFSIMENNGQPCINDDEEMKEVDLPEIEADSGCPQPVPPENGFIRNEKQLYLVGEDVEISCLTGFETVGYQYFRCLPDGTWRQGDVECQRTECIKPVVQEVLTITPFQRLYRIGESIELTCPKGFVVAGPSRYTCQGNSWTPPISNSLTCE

mIgG (antibody)
ELISA plate reading (no name or unit printed) [1]: 0.0472 | ELISA plate reading (no name or unit printed) (C6: 1-934_10xHis (human) [2]): 0.0481 | ELISA plate reading (no name or unit printed) [3]: 0.0935 | ELISA plate reading (no name or unit printed) [4]: 0.0648 | ELISA plate reading (no name or unit printed) [5]: 0.0413 | ELISA plate reading (no name or unit printed) (C6 no His (human) [6]): 0.115 | ELISA plate reading (no name or unit printed) (C6 no His (human) [7]): 0.0488 | ELISA plate reading (no name or unit printed) [8]: 0.0429 | ELISA plate reading (no name or unit printed) [9]: 0.0666 | ELISA plate reading (no name or unit printed) [10]: 0.0441 | ELISA plate reading (no name or unit printed) (C6: 1-934_10xHis (human) [11]): 0.0472 | ELISA plate reading (no name or unit printed) [12]: 0.0811 | ELISA plate reading (no name or unit printed) [13]: 0.0623 | ELISA plate reading (no name or unit printed) [14]: 0.0728
